± gives the uncertainty stated by the source.
Experiment: self-splicing fitness, log relative to wild type (ln ratio); higher = more splicing; Tetrahymena group I intron in knt gene, E. coli kanamycin selection, DiMSum; sequences stand for … in CUCUCU…GGAGGGAAAAGUUAUCAGGCAUGCACCUGGUAGCUAGUCUUUAAACCAAUAGAUUGCAUCGGUUUAAAAGGCAAGACCGUCAAAUUGCGGGAAAGGGGUCAACAGCCGUUCAGUACCAAGUCUCAGGGGAAACUUUGAGAUGGCCUUGCAAAGGGUAUGGUAAUAAGCUGACGGACAUGGUCCUAACCACGCAGCCAAGUCCUAAGUCAACAGAUCUUCUGUUGAUAUGGAUGCAGUUCACAGACUAAAUGUCGGUCGGGGAAGAUGUAUUCUUCUCAUAAGAUAUAGUCGGACCUCUCCUUAAUGGGAGCUAGCGGAUGAAGUGAUGCAACACUGGAGCCGCUGGGAACUAAUUUGUAUGCGAAAGUAUAUUGAUUAGUUUUGGAGUACUCGUGGUCG
Outline: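 A randomised library covering all eight P1ex-region intron nucleotides was built with the intron in the knt kanamycin-resistance gene on pET-22b(+) and held in E. coli BL21(DE3). Cells were grown overnight at 37°C or 30°C on LB agar, with or without 25 μg/mL kanamycin, plus 100 μg/mL carbenicillin, 50 μM IPTG and 0.2% rhamnose, and pooled colonies were amplicon-sequenced on an Illumina HiSeq 2500. DiMSum fitness is the error-weighted combination of wild-type-normalised replicate fold changes, kanamycin versus none.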

| Sequence | self-splicing fitness (ln) (30 °C) | self-splicing fitness (ln) (37 °C) |
| --- | --- | --- |
| CCUUAGCAAUAUUACGGUAA | -2.78 ± 0.27 | -2.59 ± 0.35 |
| AGGAAGCAAUAUUACGCGCG | -0.598 ± 0.21 | -0.0648 ± 0.26 |
| CAUGAGCAAUAUUACGAGAU | -4.03 ± 0.23 | -1.82 ± 0.28 |
| GAGGAGCAAUAUUACGCCUG | -2.07 ± 0.41 | -1.3 ± 0.44 |
| AGAGAGCAAUAUUACGACUC | -1.4 ± 0.12 | -0.408 ± 0.15 |
| GCCGAGCAAUAUUACGGGAU | -2.03 ± 0.11 | -0.76 ± 0.13 |
| CCCUAGCAAUAUUACGCAAU | -3.56 ± 0.23 | -2.02 ± 0.27 |
| AGCGAGCAAUAUUACGAAAU | -2.79 ± 0.23 | -2.39 ± 0.42 |
| CUACAGCAAUAUUACGGCCA | -3 ± 0.28 |  |
| GGGCAGCAAUAUUACGAGUA | -2.78 ± 0.42 | -2.53 ± 0.33 |
| AUUUAGCAAUAUUACGAACU | 0.198 ± 0.13 | 0.211 ± 0.14 |
| UUCCAGCAAUAUUACGAAGC | -2.59 ± 0.32 | -1.92 ± 0.26 |
| CUCAAGCAAUAUUACGCCCU | -3.13 ± 0.44 | -1.36 ± 0.36 |
| UAAGAGCAAUAUUACGUCCU |  | -2.49 ± 0.45 |
| ACUUAGCAAUAUUACGCAUG | -1.76 ± 0.085 | -0.581 ± 0.11 |
| GUGGAGCAAUAUUACGUUUG | -3.31 ± 0.26 | -2.79 ± 0.3 |
| GGGUAGCAAUAUUACGAGAU | -2.43 ± 0.19 | -1.59 ± 0.21 |

| Sequence | self-splicing fitness (ln) (30 °C) | self-splicing fitness (ln) (37 °C) |
| --- | --- | --- |
| AGCUAGCAAUAUUACGCCGA | -1.4 ± 0.4 |  |
| GUCUAGCAAUAUUACGGACG | -0.561 ± 0.15 | -0.711 ± 0.2 |
| CCGCAGCAAUAUUACGUGUC | -3.88 ± 0.2 | -2.34 ± 0.14 |
| AGUAAGCAAUAUUACGAGUA | -2.91 ± 0.26 | -0.922 ± 0.16 |
| CGUUAGCAAUAUUACGAACU | -0.929 ± 0.075 | 0.785 ± 0.11 |
| GGGCAGCAAUAUUACGAUUA | -1.27 ± 0.14 | -1.63 ± 0.15 |
| GCUCAGCAAUAUUACGAUGG | -1.05 ± 0.11 | 0.368 ± 0.13 |
| GAUGAGCAAUAUUACGGCAG |  | -2.52 ± 0.41 |
| GUUGAGCAAUAUUACGUGUG | -3.65 ± 0.34 | -3.15 ± 0.32 |
| UACAAGCAAUAUUACGGGAG | -3.1 ± 0.12 | -1.49 ± 0.094 |
| UUAAAGCAAUAUUACGGUUA | 0.31 ± 0.069 | -0.0607 ± 0.072 |
| GAACAGCAAUAUUACGCUGA | -3.29 ± 0.2 | -2.04 ± 0.14 |
| CGCCAGCAAUAUUACGUGUG | -2.82 ± 0.094 | -1.81 ± 0.11 |
| UAACAGCAAUAUUACGCAGC | -4.12 ± 0.37 | -3.15 ± 0.4 |
| AUGCAGCAAUAUUACGUCCA | -1.72 ± 0.11 | -0.786 ± 0.11 |
| ACAGAGCAAUAUUACGGGUA | -2.47 ± 0.36 | -3 ± 0.31 |
| CCACAGCAAUAUUACGCAAU | -3.41 ± 0.2 | -2.66 ± 0.25 |
